The supplement of paper PMC10567573

B1: TSN (parent)
chain: FVELQGFLAAEQDIREEIRKVVQS
B2: CCND1 (parent)
chain: IRRAYPDANLLNDRVLRAMLKAEE

Variants of: B1
Test: protein stability index of a GFP-peptide fusion (GPS, HEK-293T) (PSI 1-6); higher = more stable
Settings: c terminus: a fixed tail appended
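Further: lentivirally expressed fusions sorted by FACS into six bins by GFP to DsRed ratio, PSI derived from sequencing read proportions per bin multiplied by bin number.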

Protein stability index, by site and new letter:
R15: H 1.91; N 1.03
D13: N 3.27; M 2.91
Q23: W 1.65; I 1.25
V2: K 3.83; R 3.34; N 3.06; A 2.37
V21: D 2.52; T 3.32
I18: L 2.87; P 3.43; Y 2.13
E3: H 2.9; S 2.08; K 1.4
S24: L 3.92; E 1.72
V22: L 1.97; F 2.67; C 3; Q 4.66
Q12: K 2.24
E16: L 1.76; S 1.18
E11: W 3.13
A10: C 1.04; M 2.2
G6: C 1.56; S 1.85
F1: C 3.1; K 3.83
L4: K 1.8; M 2.15
F7: K 1.31; G 2.33; V 2.04
A9: M 1.78; E 2.47
L8: P 2.99; G 1.07
Q5: A 1.58

Variants of: B2
Test: as above
Settings: c terminus: a fixed tail appended

Protein stability index, by site and new letter:
I1: H 3.25; V 2.69; K 2.99; C 2.41; Q 3.45; R 2.21; W 2.32; S 3.94; T 2.27; P 3.34; N 3.69; A 2.77; L 2.5
R3: H 2.92; Y 2.05; I 1.13; K 2.84; P 2.71; E 3.72; A 2.86; F 1.87; M 2.35; N 2.66; D 4.23; G 3.44; V 1.54; T 3.17; Q 3.62; W 1.99
Y5: D 1.54; W 2.13; H 2.02; G 2.14; C 2.9; E 2.51; K 3.3; N 2.43; R 2.53; L 3.07; P 3.69; A 3.33; T 3.49
N12: R 2.73; K 2.15; F 1.9; C 2.51; Y 2.52; E 3.41; A 3.21; G 3.05; W 2.19; S 2.11; D 2.87; H 2.5; Q 2.39; P 1.84
A4: Y 2.68; L 1.84; P 3.12; E 2.04; R 2.37; T 2.12; C 2.17; N 2.59; K 2.3; M 2.58; I 2.4; H 2.4; F 1.4; Q 2.37; W 3.03; V 1.79
R17: V 1.72; T 3.47; H 2.31; W 1.74; E 2.22; C 2.46; M 3.21; D 2.12; N 2.61; Q 2.68; F 2.1; S 2.72; L 3.01; I 1.82; Y 3.4; P 3.46
R2: K 2.87; N 2.84; F 1.94; H 2.08; E 3.49; Y 1.6; W 3.61; Q 3.03; C 2.25; L 2.39; I 2.4; D 4.09; A 3.82; M 3.37; T 2.92; P 3.68
K21: C 3.33; A 2.35
D13: A 2.28; M 2.66; C 2.72; I 2.91; Q 3.34; V 1.54; L 2.02; H 2.2; N 2.02; R 3.68; S 2.37; P 2.61; W 2.35; F 2.34; T 2.52; K 2.45
L16: E 4.28; I 2.85; S 4.52; N 3.65; A 3.43; K 3.67; P 4.08; Y 3.66; V 2.94; G 2.99; H 3.38; Q 3.53
V15: E 3.12; H 4.36; S 3.27; N 3.25; F 2.41; L 1.9; Q 4.11; C 2.61; D 3.5; I 1.99; W 3.47; A 3.31; T 3.33; P 3.51; R 3.57; G 3.37; M 1.9
A18: M 1.8; I 2.36; G 3.77; L 1.31; R 3.23; P 2.29; K 3.02; T 3.58; W 2.3; H 3.17; N 3.06; S 3.66; C 2.33; Q 3.94
M19: P 3.79; K 3.92; D 4.26; E 3; C 3.48; V 3.61; W 3.96; Q 3.52; T 3.38; R 3.15; N 4.92; A 3; H 3.54; F 3.26
L10: P 2.63; W 2.02; Q 3.38; V 2.49; K 3.23; A 2.48; Y 3.34; R 3.08; N 3.58; I 1.22; T 3.13; H 2.94; D 3.97; S 2.14; F 2.52
A8: P 3.03; R 3.16; V 3.02; L 2.04; Y 2.4; S 2.81; I 2.02; K 2.53; M 2.85; T 2.61; F 2.54; H 2.28; C 2.78; N 3.46
P6: R 2.35; T 1.88; Y 1.63; I 2.21; G 2.13; M 2.99; S 3.19; E 2.14; V 3.38; F 2.4; D 1.43; A 1.75; L 2.42
N9: V 2.26; G 2.34; S 2.44; T 2.63; A 2.34; R 2.06; E 3.04; D 2.3; I 2.36; Y 2.11; F 1.71
L11: Q 3.79; F 1.75; N 1.97; K 3.33; M 1.92; I 2.43; T 3.04; W 2.02; G 2.84; P 2.48; S 3.01; D 4.19; V 2.72; C 2.69; E 3.58
L20: E 4.09; H 2.55; I 3.55; M 2.87; P 4.68; N 3.45; D 4.05; W 2.32; F 2.63; Q 2.58; A 3.3; G 4.01; R 3.03; Y 2.9; K 3.25; S 3.69; T 3.12
D7: T 2.23; H 2.14; P 2.09; L 1.84; Y 2.13; F 1.65; W 2.36; N 3.11; E 2.06; A 1.83; K 2.1; S 2.43
R14: L 1.99; C 2.41; I 1.03; A 2.3; D 1.56; E 2.84; Q 2.29; K 1.83; F 2.56; G 1.96; M 2.81; H 1.74; T 3.07; Y 1.84
